Common to all, as to experiment: SPR
(In general: In SPR one partner is held on a chip, and binding of the other changes the refractive index at the surface.)

In experiment [1] the target is T1, IL-33/sST2 complex (human).
T1 chain 1: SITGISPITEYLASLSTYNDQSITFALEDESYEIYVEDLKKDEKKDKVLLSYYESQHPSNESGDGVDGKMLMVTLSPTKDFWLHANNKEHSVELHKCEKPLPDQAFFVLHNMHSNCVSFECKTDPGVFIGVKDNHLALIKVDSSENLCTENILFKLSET
T1 chain 2: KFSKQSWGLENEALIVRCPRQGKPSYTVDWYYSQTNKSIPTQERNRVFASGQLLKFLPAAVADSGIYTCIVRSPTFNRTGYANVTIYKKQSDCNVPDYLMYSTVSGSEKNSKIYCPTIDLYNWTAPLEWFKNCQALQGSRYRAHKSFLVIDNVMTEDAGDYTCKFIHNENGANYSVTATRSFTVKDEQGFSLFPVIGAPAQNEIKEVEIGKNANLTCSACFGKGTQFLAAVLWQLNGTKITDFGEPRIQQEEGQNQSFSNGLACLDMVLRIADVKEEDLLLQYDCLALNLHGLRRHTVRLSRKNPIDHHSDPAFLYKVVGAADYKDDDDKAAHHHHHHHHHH

In experiment [2] the target is T2, reduced IL-33 (human).
T2 chain: T1 chain 1

In experiment [3] the target is T3, oxidized IL-33 (human).
T3 chain: T1 chain 1

B1: AB1070008 (antibody, V domains shown)
VH: QVQLQQSGPELVKPGASVKTSCKASGYSFTSYYIHWVKQRPGQGLEWIGWIYPGSGNTKYNEKFKGKATLTADTSSSTAFMQLSSLTSEDSAVYYCASGFHYYGRMDYWGQGTTLTVSS
VL: DIQMTQSPSSLSASLGERVSLTCRASQEISGYLSWLQQKPDGTIKRLIYSTSTLDSGVPKSFSGSRSGSDYSLTISSLESEDFADYYCLQYASSPWTFGGGTKLEIK
In the case of B1, the dissociation constant Kd is 26.5 nM in experiment [1] and 0.895 nM in experiment [2].

B2: AB1070141 (antibody, V domains shown)
VH: QVQLQQSGAELMKPGASVKLSCKATGYIVTDYWIEWVKQRPGHGLEWIGEILPRSDSTNYNEKFKVRATFTADTSSNTAYMQLSSLTTEDSAIYYCASHYHYDGSLFVYWGQGTLVTVSS
VL: DIVMSQSPSSLAVSAGEKVTMSCKSSQSLLNSRTRKNYLAWYQQKPGQSPKLLIYWASTRESGVPDRFTGSGSGTDFTLTISSVQAEDLAVYYCKQSYSLPTFGGGTKLEIK
As for B2, in experiment [3], the Kd was found to be 1.83 nM. That is a single-digit nanomolar value.

B3: AB1070019 (antibody, V domains shown)
VH: QVQLQQSGAELAKPGASVKMSCKASGYTFTRYWMHWIKQRPGQGLEWIGYINPYSGYTEYNQKFKDKATLTADKSSSTAYMQLSSLTSEDSAVYYCARYSYYTYDGRGYAMDYWGQGTSVTVSS
VL: DIVMTQSQKFMSTSVGDRVSVTCKASQNVGTNVAWYQQKPGQSPKALIYSASYRYSGVPDRFTGSGSGTDFTLTISNVQSEDLAEYFCQQYNSYPFTFGSGTKLEIK
B3 had a Kd in experiment [2] of 0.068 nM.

In general, Kd refers to the concentration at which binding is half-saturated. Low readings indicate a tighter complex, high ones a looser complex.

Values taken from patent publication US20260348975 (published 2026).
